Test [1] addresses T1, human SIRP-α v1 D1 domain (human, UniProt P78324 31-149).
T1 construct: also called human v1; human α v1
Put plainly: SPR, antibody immobilised on GLC chip. As to the method:
(§1) All experiments were performed at 25° C. using a SPR-based ProteOn XPR36 biosensor (BioRad, Inc, Hercules, Calif.) equipped with GLC or NLC sensor chips. […] Purification was carried out by standard Protein A affinity column chromatography and eluted antibodies were stored in PBS buffer.
(§2) For the method using GLC chip, the analytes were injected and flowed over anti-SIRPα antibodies immobilized (˜1000 RUs) on GLC chips using Proteon™ Amine Coupling Kit. For the immobilization step, GLC chip was activated with EDAC/Sulpho-NHS 1:1 (Biorad) diluted 1/100 for 300 s at 25 μL/min. Anti-SIRPα antibodies were diluted to 80 nM concentration in 10 mM sodium acetate buffer pH 4.5 and immobilized to the chip at 30 μL/min for 50 s. Chip was inactivated with ethanolamine for 300 s at 25 μL/min. The analytes (e.g., SIRP-α from different species, SIRP-β, SIRP-γ) were injected in a “one-shot” kinetic mode at nominal concentrations of 100, 33, 11, 3.7, 1.2 and 0 nM. Association times were monitored for 90 s at 100 μL/min, and dissociation times were monitored for 1200 s. The surfaces were regenerated with a 2:1 v/v blend of Pierce IgG elution buffer/4M NaCl. […]

The next test addresses T2, human SIRPγ isoform 1 (human, UniProt Q9P1W8 29-147).
T2 construct: also called sirpg; sirp-g
Put plainly: SPR, antibody immobilised on GLC chip. As to the method:
as §1, §2
In general terms: Surface plasmon resonance follows binding to a sensor surface in real time, without labels.

Test [2] addresses T3, human SIRP-α v2 D1 domain (human).
T3 construct: also called human v2; human α v2
Put plainly: SPR, antibody immobilised on GLC chip. As to the method: as §1, §2

Test [3] addresses T4, NOD mouse SIRP-α D1 domain (mouse (NOD strain)).
T4 chain: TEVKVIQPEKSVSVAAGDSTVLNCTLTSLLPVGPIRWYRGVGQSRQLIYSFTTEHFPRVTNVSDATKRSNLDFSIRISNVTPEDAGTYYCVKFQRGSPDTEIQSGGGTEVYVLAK
Put plainly: SPR, antibody immobilised on GLC chip. The procedure: as §1, §2

Test [4] addresses T5, C57BL/6 mouse SIRP-α D1 domain (mouse (C57BL/6 strain), UniProt P97797 32-148).
T5 sequence: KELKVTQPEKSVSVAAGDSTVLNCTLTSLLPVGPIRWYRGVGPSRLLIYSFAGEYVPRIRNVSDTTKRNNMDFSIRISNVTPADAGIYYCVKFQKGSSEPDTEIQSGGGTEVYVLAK
Kind of test: SPR, antibody immobilised on GLC chip. As to the method:
as §1, §2

Test [5] has as its target T6, BALB/c mouse SIRP-α D1 domain (mouse (BALB/c strain)).
T6 chain: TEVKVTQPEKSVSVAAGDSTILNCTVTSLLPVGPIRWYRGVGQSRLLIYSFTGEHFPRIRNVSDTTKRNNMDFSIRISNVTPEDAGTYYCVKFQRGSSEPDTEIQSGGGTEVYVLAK
Put plainly: SPR, antibody immobilised on GLC chip. The procedure: as §1, §2

The target of another test is T7, human SIRP-α v1 (human, UniProt P78324 31-149).
T7 construct: also called Human v1; Human V1
Kind of test: SPR. Summed up: (§3)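 Apparent association and dissociation rate constants, and KD as kd/ka, were obtained by global fitting of double-referenced data to a simple Langmuir model. Measurements used a ProteOn XPR36 biosensor at 25° C in PBS pH 7.4 with 0.01% Tween-20, with SIRP analytes injected in one-shot kinetic mode at nominal concentrations from A280 absorbance. The purified antibodies were either amine-coupled to a GLC chip or held on an NLC chip by biotinylated Protein A.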

The next test deals with T8, NOD mouse SIRP-α (mouse (NOD strain)).
T8 chain: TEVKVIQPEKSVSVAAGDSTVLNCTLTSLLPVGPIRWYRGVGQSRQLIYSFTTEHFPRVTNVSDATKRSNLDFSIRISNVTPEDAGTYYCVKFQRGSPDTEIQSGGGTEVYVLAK
Put plainly: SPR. Summed up: as §3

A further test has as its target T9, BL6 mouse SIRP-α (mouse (C57BL/6 strain), UniProt P97797 32-148).
T9 construct: also called C57BL/6
T9 sequence: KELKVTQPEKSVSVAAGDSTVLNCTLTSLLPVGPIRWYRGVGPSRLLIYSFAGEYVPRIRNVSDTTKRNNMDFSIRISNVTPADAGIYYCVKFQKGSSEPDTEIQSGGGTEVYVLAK
Kind of test: SPR. Summed up:
as §3

In the next test the target is T10, BALBc mouse SIRP-α (mouse (BALB/c strain)).
T10 chain: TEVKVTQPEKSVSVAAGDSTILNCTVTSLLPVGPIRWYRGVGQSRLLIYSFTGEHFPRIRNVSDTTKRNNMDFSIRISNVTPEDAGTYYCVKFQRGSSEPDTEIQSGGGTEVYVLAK
Put plainly: SPR. Summed up:
as §3

This passage reports Kd results from patent US20210363269A1 (ALX ONCOLOGY, published 2021).

In general, Kd refers to the equilibrium constant for the complex coming apart. A higher Kd goes with a looser complex.

T2 sequence (Q9P1W8 29-147 limits assumed): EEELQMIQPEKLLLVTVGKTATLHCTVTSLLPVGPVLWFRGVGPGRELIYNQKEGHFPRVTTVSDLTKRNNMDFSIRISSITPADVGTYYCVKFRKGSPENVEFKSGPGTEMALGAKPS
T3 sequence (chain, as listed by the source limits assumed): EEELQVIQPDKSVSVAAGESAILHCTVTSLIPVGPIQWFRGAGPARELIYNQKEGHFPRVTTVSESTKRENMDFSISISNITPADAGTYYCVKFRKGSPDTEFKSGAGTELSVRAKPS
T1 sequence (P78324 31-149 limits assumed): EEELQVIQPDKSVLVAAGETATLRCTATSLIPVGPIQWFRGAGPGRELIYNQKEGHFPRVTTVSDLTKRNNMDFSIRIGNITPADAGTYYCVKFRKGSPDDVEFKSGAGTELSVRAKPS
T7 sequence (P78324 31-149 limits assumed): as above

B1: antibody 136 variant Mut/mut (antibody, human IgG1, V domains shown)
VH: EVQLVESGGGVVQPGRSLRLSCAASGFTFSSYDVNWVRQAPGKGLEWVSLISGSGEIIYYADSVKGRFTISRDNSKNTLYLQMNSLRAEDTAVYYCAKENNRYRFFDDWGQGTLVTVSS
VL: EIVLTQSPGTLSLSPGERATLSCRASQSVYTYLAWYQQKPGQAPRLLIYGASSRATGIPDRFSGSGSGTEFTLTISSLQSEDFAVYYCQQYYDRPPLTFGGGTKVEIK
notes: Human IgG1 with L234A/L235A/G237A/N297A; Labels are light chain/heavy chain
Consider B1, for which the Kd in test [1] stood at 7.32 nM; in the test with human SIRPγ isoform 1, 28.8 nM; in [2] it was 12.7 nM; in test [3] it was 5.42 nM; in [4], 21.6 nM; in test [5], 2.67 nM.

B2: antibody 136 variant MutRv_S22T/mut (antibody, human IgG1, V domains shown)
VH: EVQLVESGGGVVQPGRSLRLSCAASGFTFSSYDVNWVRQAPGKGLEWVSLISGSGEIIYYADSVKGRFTISRDNSKNTLYLQMNSLRAEDTAVYYCAKENNRYRFFDDWGQGTLVTVSS
VL: EIVLTQSPGTLSLSPGERATLTCRASQSVYTYLAWYQQKPGQAPRLLIYGASSRATGIPDRFSGSGSGTEFTLTISSLQSEDFAVYYCQQYYDRPPLTFGGGTKVEIK
notes: as for B1
Consider B2, for which the Kd was determined as 4.99 nM in [1]; 61.7 nM with human SIRPγ isoform 1; 8.28 nM in test [2]; 2.44 nM in test [3]; 13.3 nM in test [4]; 1.64 nM in [5].

B3: antibody 136 variant MutRv_Q38E/mut (antibody, human IgG1, V domains shown)
VH: EVQLVESGGGVVQPGRSLRLSCAASGFTFSSYDVNWVRQAPGKGLEWVSLISGSGEIIYYADSVKGRFTISRDNSKNTLYLQMNSLRAEDTAVYYCAKENNRYRFFDDWGQGTLVTVSS
VL: EIVLTQSPGTLSLSPGERATLSCRASQSVYTYLAWYQEKPGQAPRLLIYGASSRATGIPDRFSGSGSGTEFTLTISSLQSEDFAVYYCQQYYDRPPLTFGGGTKVEIK
notes: as for B1
For B3, the Kd in test [1] was 6.18 nM; in the test with human SIRPγ isoform 1 it was 19.3 nM; in test [2] it was 12.5 nM; in test [3], 5.98 nM; in test [4], 33.1 nM; in [5] it was 2.98 nM.

B4: antibody 136 variant MutRv_I2T/mut (antibody, human IgG1, V domains shown)
VH: EVQLVESGGGVVQPGRSLRLSCAASGFTFSSYDVNWVRQAPGKGLEWVSLISGSGEIIYYADSVKGRFTISRDNSKNTLYLQMNSLRAEDTAVYYCAKENNRYRFFDDWGQGTLVTVSS
VL: ETVLTQSPGTLSLSPGERATLSCRASQSVYTYLAWYQQKPGQAPRLLIYGASSRATGIPDRFSGSGSGTEFTLTISSLQSEDFAVYYCQQYYDRPPLTFGGGTKVEIK
notes: as for B1
Regarding B4, the Kd in test [1] stood at 0.717 nM; with human SIRPγ isoform 1, 40 nM; in test [2] it was 1.86 nM; in [3], 0.68 nM; in test [4] it was 15.3 nM; in test [5] it was 0.422 nM.

B5: antibody 136 variant MutRv_S12T/mut (antibody, human IgG1, V domains shown)
VH: EVQLVESGGGVVQPGRSLRLSCAASGFTFSSYDVNWVRQAPGKGLEWVSLISGSGEIIYYADSVKGRFTISRDNSKNTLYLQMNSLRAEDTAVYYCAKENNRYRFFDDWGQGTLVTVSS
VL: EIVLTQSPGTLTLSPGERATLSCRASQSVYTYLAWYQQKPGQAPRLLIYGASSRATGIPDRFSGSGSGTEFTLTISSLQSEDFAVYYCQQYYDRPPLTFGGGTKVEIK
notes: as for B1
Turning to B5, the Kd amounted to 4.88 nM in [1]; 66.7 nM with human SIRPγ isoform 1; 10.5 nM in test [2]; 2.85 nM in test [3]; 16.3 nM in test [4]; 2.09 nM in test [5].

B6: Hum1/AB25_HC_Mutall (antibody, V domains shown)
VH: EVQLVESGGGVVQPGGSLRLSCAASGFTFSSNAMSWVRQAPGKGLEWVAGISSGSDTYYGDSVKGRFTISRDNSKNTLYLQMNSLTAEDTAVYYCARETWNHLFDYWGQGTLVTVSS
VL: SYELTQPPSVSVSPGQTARITCSGGSYSSYYYAWYQQKPGQAPVTLIYSDDKRPSNIPERFSGSSSGTTVTLTISGVQAEDEADYYCGGYDQSSYTNPFGGGTKLTVL
As for B6, the Kd was determined as 0.00519 nM in the test with human SIRP-α v1, 4.83 nM in the test with NOD mouse SIRP-α, 10.3 nM with BL6 mouse SIRP-α and 7.25 nM with BALBc mouse SIRP-α.

B7: Hum1/AB27_HC_Mutall (antibody, V domains shown)
VH: EVQLVESGGGVVQPGGSLRLSCAASGFRFSSYAMSWVRQAPGKGLEWVSGISSGGDTYYVDSVKGRFTISRDNSKNTLYLQMNSLRAEDTAVYYCARETWNHLFDYWGQGTLVTVSS
VL: SYELTQPPSVSVSPGQTARITCSGGSYSSYYYAWYQQKPGQAPVTLIYSDDKRPSNIPERFSGSSSGTTVTLTISGVQAEDEADYYCGGYDQSSYTNPFGGGTKLTVL
Take B7: the Kd with human SIRP-α v1 was 0.00437 nM; with NOD mouse SIRP-α it was 2.92 nM; with BL6 mouse SIRP-α, 9.03 nM; with BALBc mouse SIRP-α, 5.77 nM.

B8: Hum8/AB25_HC_Mutall (antibody, V domains shown)
VH: EVQLVESGGGVVQPGGSLRLSCAASGFTFSSNAMSWVRQAPGKGLEWVAGISSGSDTYYGDSVKGRFTISRDNSKNTLYLQMNSLTAEDTAVYYCARETWNHLFDYWGQGTLVTVSS
VL: SYELTQPPSVSVSPGQTARITCSGGAYSSYYYAWYQQKPGQAPVLVIYSDSKRPSGIPERFSGSSSGTTVTLTISGVQAEDEADYYCGGYDQSSYTNPFGGGTKLTVL
For B8, the Kd with human SIRP-α v1 was 0.0262 nM; with NOD mouse SIRP-α it was 20.5 nM; with BL6 mouse SIRP-α, 497000 nM; with BALBc mouse SIRP-α, 59.9 nM.

B9: Hum9/AB25_HC_Mutall (antibody, V domains shown)
VH: EVQLVESGGGVVQPGGSLRLSCAASGFTFSSNAMSWVRQAPGKGLEWVAGISSGSDTYYGDSVKGRFTISRDNSKNTLYLQMNSLTAEDTAVYYCARETWNHLFDYWGQGTLVTVSS
VL: SYELTQPPSVSVSPGQTARITCSGGAYSSYYYAWYQQKPGQAPVLVIYSDDKRPSGIPERFSGSSSGTTVTLTISGVQAEDEADYYCGGYDQSSYTNPFGGGTKLTVL
As to B9, the Kd with human SIRP-α v1 was 0.0129 nM; in the test with NOD mouse SIRP-α it was 61.2 nM; with BL6 mouse SIRP-α, 11.5 nM; in the test with BALBc mouse SIRP-α, 38.3 nM.
